Values of other authors in paper PMC3970081.

Biological target: KIF5B tail (Rattus norvegicus) (UniProt Q2PQA9)
Assay: SPR

Kv3.1 T1 domain, sequence (P25122 1-129): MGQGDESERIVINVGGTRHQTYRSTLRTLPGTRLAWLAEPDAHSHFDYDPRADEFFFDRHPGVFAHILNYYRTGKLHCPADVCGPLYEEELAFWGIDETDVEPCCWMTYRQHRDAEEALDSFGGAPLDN
KIF5B tail (Rattus norvegicus), sequence (Q2PQA9 758-963): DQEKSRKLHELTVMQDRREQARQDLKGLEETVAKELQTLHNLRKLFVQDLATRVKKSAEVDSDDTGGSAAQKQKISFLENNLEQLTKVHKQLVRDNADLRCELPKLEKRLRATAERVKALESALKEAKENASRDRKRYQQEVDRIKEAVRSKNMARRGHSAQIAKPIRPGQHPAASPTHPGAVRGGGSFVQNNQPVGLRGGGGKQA

Kv3.1 T1 domain (from UniProt P25122)
Kd: 60 nM
